The target in one assay is T1, 4H485-AA.
T1 chain: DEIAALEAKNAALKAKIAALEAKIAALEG
Nature of the assay: two-hybrid library CCmax.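 Further: natural log of median RNA to DNA barcode read ratio; higher means stronger binding.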 The note with it: mean of both orientations.

The target of another assay is T2, 4H570-AA.
T2 chain: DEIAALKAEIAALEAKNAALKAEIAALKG
Nature of the assay: two-hybrid library CCmax.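 Further: natural log of median RNA to DNA barcode read ratio; higher means stronger binding.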 The note with it: mean of both orientations.

The target in a further assay is T3, 4H3590-AA.
T3 chain: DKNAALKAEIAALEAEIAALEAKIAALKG
Nature of the assay: two-hybrid library CCmax.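 Further: natural log of median RNA to DNA barcode read ratio; higher means stronger binding.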 The note with it: mean of both orientations.

A further assay deals with T4, 4H3410-AA.
T4 chain: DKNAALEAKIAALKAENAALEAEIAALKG
Nature of the assay: two-hybrid library CCmax.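 Further: natural log of median RNA to DNA barcode read ratio; higher means stronger binding.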

A further assay has as its target T5, 4H536-AA.
T5 chain: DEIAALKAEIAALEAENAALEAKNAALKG
Nature of the assay: two-hybrid library CCmax. The note with it: mean of both orientations.

The target of another assay is T6, 4H850-AA.
T6 chain: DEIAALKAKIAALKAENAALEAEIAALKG
Nature of the assay: two-hybrid library CCmax. Conditions: mean of both orientations.

The target of a further assay is T7, 4H930-AA.
T7 chain: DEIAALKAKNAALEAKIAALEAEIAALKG
Nature of the assay: two-hybrid library CCmax. Conditions: mean of both orientations.

The target in another assay is T8, 4H458-AA.
T8 chain: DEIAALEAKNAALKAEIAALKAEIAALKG
Nature of the assay: two-hybrid library CCmax. The note with it: mean of both orientations.

A further assay concerns the target T9, 4H629-AA.
T9 chain: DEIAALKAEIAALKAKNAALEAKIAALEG
Nature of the assay: two-hybrid library CCmax. The note with it: mean of both orientations.

Another assay addresses T10, 4H3753-AA.
T10 chain: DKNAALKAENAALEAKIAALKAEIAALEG
Nature of the assay: two-hybrid library CCmax. The note with it: mean of both orientations.

A further assay has as its target T11, 4H3697-AA.
T11 chain: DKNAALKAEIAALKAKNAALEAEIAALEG
Nature of the assay: two-hybrid library CCmax.

In the next assay the target is T12, 4H3865-AA.
T12 chain: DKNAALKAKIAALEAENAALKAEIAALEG
Nature of the assay: two-hybrid library CCmax. Conditions: mean of both orientations.

The target of the next assay is T13, 4H94-AA.
T13 chain: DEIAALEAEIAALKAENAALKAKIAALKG
Nature of the assay: two-hybrid library CCmax. The note with it: mean of both orientations.

Another assay deals with T14, 4H710-AA.
T14 chain: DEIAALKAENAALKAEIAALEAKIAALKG
Nature of the assay: two-hybrid library CCmax. Conditions: mean of both orientations.

Another assay deals with T15, 4H797-AA.
T15 chain: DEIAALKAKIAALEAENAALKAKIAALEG
Nature of the assay: two-hybrid library CCmax. Conditions: mean of both orientations.

In a further assay the target is T16, 4H909-AA.
T16 chain: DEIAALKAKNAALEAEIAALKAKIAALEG
Nature of the assay: two-hybrid library CCmax. The note with it: mean of both orientations.

Another assay has as its target T17, 4H745-AA.
T17 chain: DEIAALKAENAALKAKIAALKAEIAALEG
Nature of the assay: two-hybrid library CCmax. The note with it: mean of both orientations.

In the next assay the target is T18, 4H891-AA.
T18 chain: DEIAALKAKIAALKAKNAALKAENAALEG
Nature of the assay: two-hybrid library CCmax. The note with it: mean of both orientations.

Another assay deals with T19, 4H953-bN.
T19 chain: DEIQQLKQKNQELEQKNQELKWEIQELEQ
Nature of the assay: two-hybrid library CCNG1.

A further assay deals with T20, 4H908-bN.
T20 chain: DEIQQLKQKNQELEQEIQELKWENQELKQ
Nature of the assay: two-hybrid library CCNG1.

The target of a further assay is T21, 4H967-bN.
T21 chain: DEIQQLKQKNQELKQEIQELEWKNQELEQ
Nature of the assay: two-hybrid library CCNG1.

Another assay deals with T22, 4H883-bN.
T22 chain: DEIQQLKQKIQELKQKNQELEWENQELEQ
Nature of the assay: two-hybrid library CCNG1.

A further assay concerns the target T23, 4H918-bN.
T23 chain: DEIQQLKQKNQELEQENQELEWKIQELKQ
Nature of the assay: two-hybrid library CCNG1.

The target of a further assay is T24, 4H697-AA.
T24 chain: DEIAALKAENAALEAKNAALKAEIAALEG
Nature of the assay: two-hybrid library CCmax.

Another assay deals with T25, 4H982-AA.
T25 chain: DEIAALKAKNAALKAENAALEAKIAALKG
Nature of the assay: two-hybrid library CCmax.

For the next assay, the target named is T26, 4H3395-AA.
T26 chain: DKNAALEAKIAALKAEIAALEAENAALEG
Nature of the assay: two-hybrid library CCmax.

A further assay has as its target T27, 4H478-AA.
T27 chain: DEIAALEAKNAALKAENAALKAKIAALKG
Nature of the assay: two-hybrid library CCmax.

The target in a further assay is T28, 4H428-AA.
T28 chain: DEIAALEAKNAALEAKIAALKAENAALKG
Nature of the assay: two-hybrid library CCmax.

Another assay has as its target T29, 4H656-AA.
T29 chain: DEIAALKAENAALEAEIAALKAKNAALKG
Nature of the assay: two-hybrid library CCmax. The note with it: mean of both orientations.

The target of another assay is T30, 4H675-AA.
T30 chain: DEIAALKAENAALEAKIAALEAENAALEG
Nature of the assay: two-hybrid library CCmax.

For another assay, the target named is T31, 4H497-AA.
T31 chain: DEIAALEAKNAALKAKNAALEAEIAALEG
Nature of the assay: two-hybrid library CCmax.

The next assay deals with T32, 4H971-AA.
T32 chain: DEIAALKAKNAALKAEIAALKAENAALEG
Nature of the assay: two-hybrid library CCmax. Conditions: mean of both orientations.

A further assay concerns the target T33, 4H432-AA.
T33 chain: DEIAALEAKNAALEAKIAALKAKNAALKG
Nature of the assay: two-hybrid library CCmax.

Another assay has as its target T34, 4H446-AA.
T34 chain: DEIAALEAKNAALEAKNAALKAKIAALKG
Nature of the assay: two-hybrid library CCmax. The note with it: mean of both orientations.

The target of another assay is T35, 4H63-AA.
T35 chain: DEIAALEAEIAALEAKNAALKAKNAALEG
Nature of the assay: two-hybrid library CCmax. Conditions: mean of both orientations.

The target in the next assay is T36, 4H3165-AA.
T36 chain: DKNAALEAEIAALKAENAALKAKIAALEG
Nature of the assay: two-hybrid library CCmax.

The target of the next assay is T37, 4H3381-AA.
T37 chain: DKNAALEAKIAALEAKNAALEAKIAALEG
Nature of the assay: two-hybrid library CCmax. Conditions: mean of both orientations.

A further assay concerns the target T38, APC9806-AA.
T38 chain: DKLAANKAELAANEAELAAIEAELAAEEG
Nature of the assay: two-hybrid library CCmax.

Another assay addresses T39, 4H850-bA.
T39 chain: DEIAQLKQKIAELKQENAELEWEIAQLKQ
Nature of the assay: two-hybrid library CCNG1.

Another assay concerns the target T40, 4H906-bA.
T40 chain: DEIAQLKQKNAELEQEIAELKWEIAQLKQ
Nature of the assay: two-hybrid library CCNG1.

Another assay deals with T41, 4H384-AA.
T41 chain: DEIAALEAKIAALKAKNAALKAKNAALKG
Nature of the assay: two-hybrid library CCmax. The note with it: mean of both orientations.

The target in the next assay is T42, 4H3718-AA.
T42 chain: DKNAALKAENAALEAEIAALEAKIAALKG
Nature of the assay: two-hybrid library CCmax. The note with it: mean of both orientations.

Read-outs that look alike come from different tables or passages of the source.

In the case of DKNAALEAKIAALKAENAALEAEIAALKG [4H3410-AA], the interaction score with 4H485-AA was -0.0439; with 4H570-AA, 2.09; with 4H3590-AA it was -0.698; with 4H3410-AA, 0.0832; with 4H536-AA, -1.39; with 4H850-AA, -0.83. Besides, the interaction score was -1.36 with 4H930-AA; 1.79 with 4H458-AA; -1.53 with 4H629-AA; -1.39 in the assay with 4H3753-AA; -0.574 with 4H3697-AA (mean of both orientations); 0.873 with 4H3865-AA. In addition, the interaction score with 4H94-AA was 1.3; in the assay with 4H710-AA, -1.13; with 4H797-AA, -1.22; with 4H909-AA it was -1.45; with 4H745-AA it was -0.581; in the assay with 4H891-AA it was -1.42.
On to DEIQQLKQKIQELKQKNQELEWENQELEQ [4H883-bN], for which the interaction score in the assay with 4H953-bN was -1.82; in the assay with 4H908-bN it was -1.19; with 4H967-bN, -0.861; in the assay with 4H883-bN, -1.15; with 4H918-bN, -0.986.
Regarding DEIAALKAENAALEAKNAALKAEIAALEG [4H697-AA], the interaction score is -1.15 with 4H697-AA and 2.27 in the assay with 4H982-AA.
DKNAALEAKIAALKAEIAALEAENAALEG [4H3395-AA]: the interaction score with 4H485-AA was -1.67; in the assay with 4H570-AA, -0.846; with 4H3590-AA it was 0.738; with 4H3410-AA (mean of both orientations), -1.06; with 4H536-AA, -1.14; with 4H850-AA, -1.34. Besides, the interaction score with 4H930-AA was -1.33; in the assay with 4H458-AA it was -1.44; with 4H629-AA, -1.64; with 4H3753-AA, -0.825; with 4H3697-AA (mean of both orientations), -1.79; with 4H3865-AA, -1.79. Moreover, the interaction score with 4H94-AA was -0.52; in the assay with 4H710-AA, -1.32; with 4H797-AA it was -1.43; in the assay with 4H909-AA, -1.83; in the assay with 4H3395-AA it was 0.0829; in the assay with 4H745-AA it was -1.46. In the assay with 4H891-AA, this molecule had an interaction score of 0.496.
For the molecule DEIAALEAKNAALEAKIAALKAENAALKG [4H428-AA], the interaction score in the assay with 4H478-AA (mean of both orientations) was -1.71; in the assay with 4H428-AA, 0.174; with 4H656-AA it was -0.675; with 4H675-AA (mean of both orientations) it was 0.166; in the assay with 4H497-AA (mean of both orientations), -1.47; with 4H971-AA, -0.222.
In the case of DEIAALEAKNAALEAKIAALKAKNAALKG [4H432-AA], the interaction score was -1.51 with 4H432-AA, -1.7 with 4H446-AA and -1.92 with 4H63-AA.
In the case of DKNAALEAEIAALKAENAALKAKIAALEG [4H3165-AA], the interaction score with 4H485-AA was -1.05; with 4H570-AA, -1.57; with 4H3590-AA, -0.944; in the assay with 4H3410-AA (mean of both orientations), -0.394; with 4H536-AA it was -1.27; in the assay with 4H850-AA, -0.685. In addition, the interaction score with 4H930-AA was -1.79; in the assay with 4H458-AA it was -1.24; in the assay with 4H629-AA it was -0.975; with 4H3753-AA, -1.55; with 4H3697-AA (mean of both orientations) it was -0.699; with 4H3865-AA, -0.353. Also, the interaction score is 0.996 with 4H94-AA; -1.07 with 4H710-AA; -0.547 with 4H797-AA; -1.43 with 4H909-AA; 1.88 with 4H3165-AA; -1.37 in the assay with 4H3395-AA (mean of both orientations). The figures for the interaction score with 4H745-AA, with 4H891-AA and with 4H3381-AA were -0.851, -1.63 and -1.72, respectively.
DKLAANKAELAANEAELAAIEAELAAEEG [APC9806-AA]: the interaction score with APC9806-AA is -2.12.
As to DEIQQLKQKNQELEQEIQELKWENQELKQ [4H908-bN], the interaction score is -0.77 in the assay with 4H953-bN, -0.618 in the assay with 4H908-bN, -0.23 with 4H967-bN and -0.988 in the assay with 4H918-bN.
Regarding DEIAALEAKNAALKAKNAALEAEIAALEG [4H497-AA], the interaction score with 4H656-AA is -1.34; in the assay with 4H675-AA, -0.54; with 4H497-AA, -1.57; with 4H971-AA, -2.19.
As to DEIAQLKQKIAELKQENAELEWEIAQLKQ [4H850-bA], the interaction score in the assay with 4H850-bA is 0.428; in the assay with 4H906-bA, -1.27.
Regarding DEIAALEAKNAALKAENAALKAKIAALKG [4H478-AA], the interaction score is 0.99 in the assay with 4H478-AA; -0.144 with 4H656-AA; -1.76 in the assay with 4H675-AA; -0.909 with 4H497-AA (mean of both orientations); -1.54 in the assay with 4H971-AA.
DKNAALKAEIAALKAKNAALEAEIAALEG [4H3697-AA]: the interaction score with 4H485-AA was -0.973; with 4H570-AA, 0.23; with 4H697-AA (mean of both orientations), -1.53; with 4H384-AA, -0.953; in the assay with 4H536-AA, 0.0406; in the assay with 4H982-AA (mean of both orientations), -1.01. For the same molecule, the interaction score in the assay with 4H850-AA is -0.0774; with 4H930-AA, -1.4; with 4H458-AA, -1.36; in the assay with 4H3718-AA, -0.817; with 4H629-AA, -0.654; with 4H3753-AA, -1.79. The interaction score with 4H3697-AA was -0.761; in the assay with 4H3865-AA it was -1.52; with 4H94-AA, 1.01; with 4H710-AA, -1.75; with 4H797-AA, -1.44; with 4H909-AA, -1.21. Also, the interaction score is -1.64 with 4H745-AA and -1.55 with 4H891-AA.

The record behind these values is article PMC10397247.
